Reference: the supplement of paper PMC7877785
± gives the uncertainty stated by the source.

Assay: self-splicing fitness, log relative to wild type (ln ratio); higher = more splicing; Tetrahymena group I intron in knt gene, E. coli kanamycin selection, DiMSum; sequences stand for … in CUCUCU…GGAGGGAAAAGUUAUCAGGCAUGCACCUGGUAGCUAGUCUUUAAACCAAUAGAUUGCAUCGGUUUAAAAGGCAAGACCGUCAAAUUGCGGGAAAGGGGUCAACAGCCGUUCAGUACCAAGUCUCAGGGGAAACUUUGAGAUGGCCUUGCAAAGGGUAUGGUAAUAAGCUGACGGACAUGGUCCUAACCACGCAGCCAAGUCCUAAGUCAACAGAUCUUCUGUUGAUAUGGAUGCAGUUCACAGACUAAAUGUCGGUCGGGGAAGAUGUAUUCUUCUCAUAAGAUAUAGUCGGACCUCUCCUUAAUGGGAGCUAGCGGAUGAAGUGAUGCAACACUGGAGCCGCUGGGAACUAAUUUGUAUGCGAAAGUAUAUUGAUUAGUUUUGGAGUACUCGUGGUCG
Method in brief: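 Pooled colonies went to amplicon sequencing on an Illumina HiSeq 2500 after six replicate transformations. The plates were LB agar with 100 μg/mL carbenicillin, 50 μM IPTG and 0.2% rhamnose, with or without 25 μg/mL kanamycin, incubated overnight at 37°C or 30°C. The E. coli BL21(DE3) library had all eight P1ex-region intron nucleotides randomised, the intron placed in the knt kanamycin-resistance gene on pET-22b(+). DiMSum fitness is the error-weighted combination of replicate fold changes, kanamycin against none, normalised to wild type.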

| Sequence | self-splicing fitness (ln) (30 °C) | self-splicing fitness (ln) (37 °C) |
| --- | --- | --- |
| GGGCAGCAAUAUUACGUCUU | -0.531 ± 0.081 | 0.0306 ± 0.098 |
| AGCAAGCAAUAUUACGACUG | -0.672 ± 0.077 | -0.735 ± 0.1 |
| UCCCAGCAAUAUUACGCAAU | -2.69 ± 0.11 | -2.16 ± 0.13 |
| AGCGAGCAAUAUUACGGAUU |  | -1.96 ± 0.35 |
| AAGAAGCAAUAUUACGGGUU | -1.57 ± 0.15 | -1.41 ± 0.14 |
| AUUUAGCAAUAUUACGUACU | -0.21 ± 0.11 | -0.13 ± 0.15 |
| UUGCAGCAAUAUUACGCCUU | -0.0132 ± 0.081 | 0.15 ± 0.11 |
| UGACAGCAAUAUUACGCCUA | 0.107 ± 0.069 | 0.414 ± 0.086 |
| UCCGAGCAAUAUUACGAGAG | -2.57 ± 0.16 | -2.91 ± 0.21 |
| UUUUAGCAAUAUUACGAAAG | -2.72 ± 0.2 | -0.437 ± 0.15 |
| UGAUAGCAAUAUUACGAGCU | -1.44 ± 0.15 | -0.828 ± 0.17 |
| ACCUAGCAAUAUUACGGGGG | -3.84 ± 0.2 | -1.59 ± 0.17 |
| UGCUAGCAAUAUUACGAGGG | -2.22 ± 0.15 | -2.43 ± 0.19 |
| GUAAAGCAAUAUUACGACUU | 0.245 ± 0.1 | 0.464 ± 0.12 |
| AGGAAGCAAUAUUACGAGCG | -1.96 ± 0.24 | -1.08 ± 0.22 |
| GUUGAGCAAUAUUACGUCUC |  | -0.823 ± 0.46 |
| UAGUAGCAAUAUUACGGACA | -1.04 ± 0.17 | -0.115 ± 0.19 |
| UUACAGCAAUAUUACGACCG | -0.642 ± 0.091 | -0.0873 ± 0.13 |
| AUGCAGCAAUAUUACGCGGC | -3.79 ± 0.47 |  |
| CUGAAGCAAUAUUACGGACG | 0.0263 ± 0.084 | 0.166 ± 0.1 |
| UCGGAGCAAUAUUACGUCAG |  | -1.11 ± 0.34 |
| UCUAAGCAAUAUUACGGUCU | -3.41 ± 0.21 | -3.34 ± 0.31 |
| UCCCAGCAAUAUUACGGUGU | -0.353 ± 0.043 | 0.504 ± 0.055 |
| AGGAAGCAAUAUUACGGGAG | -2.22 ± 0.19 | -2.95 ± 0.37 |
| ACUCAGCAAUAUUACGUGAC | -3.15 ± 0.14 | -0.561 ± 0.11 |
| CUAUAGCAAUAUUACGCGAC | -1.89 ± 0.18 | 0.00503 ± 0.2 |

| Sequence | self-splicing fitness (ln) (30 °C) | self-splicing fitness (ln) (37 °C) |
| --- | --- | --- |
| CUAAAGCAAUAUUACGAUGU | -3.84 ± 0.18 | -2.58 ± 0.2 |
| CCGCAGCAAUAUUACGUGGA | -3.51 ± 0.23 | -2.43 ± 0.22 |
| AGUAAGCAAUAUUACGGCGG | -2.43 ± 0.16 | -1.66 ± 0.19 |
| AAUAAGCAAUAUUACGUUAA | -2.76 ± 0.19 | -0.928 ± 0.13 |
| GUGUAGCAAUAUUACGCGGC | -2.8 ± 0.29 | -0.745 ± 0.23 |
| AAACAGCAAUAUUACGAAGG | -3.85 ± 0.13 | -2.2 ± 0.15 |
| AAUUAGCAAUAUUACGCGCU | -0.647 ± 0.13 | -0.214 ± 0.2 |
| UUAAAGCAAUAUUACGAAUA | -1.71 ± 0.088 | -0.164 ± 0.12 |
| GACAAGCAAUAUUACGGAGU | -3.03 ± 0.1 | -0.954 ± 0.1 |
| GAUCAGCAAUAUUACGGAGA | -2.08 ± 0.17 | -0.869 ± 0.14 |
| ACUUAGCAAUAUUACGCUUC | -2.32 ± 0.19 | -2.18 ± 0.45 |
| CUAGAGCAAUAUUACGCGGA |  | -1.33 ± 0.36 |
| GCCUAGCAAUAUUACGCGCG | -1.66 ± 0.23 | -1.18 ± 0.22 |
| UGUUAGCAAUAUUACGGAUU | -2.53 ± 0.16 | -0.414 ± 0.13 |
| GCUGAGCAAUAUUACGCCGU |  | -0.103 ± 0.24 |
| UUAAAGCAAUAUUACGUGAC | -1.93 ± 0.15 | -1.91 ± 0.18 |
| GUAUAGCAAUAUUACGGGAC | -2.88 ± 0.34 | -1.07 ± 0.2 |
| ACAGAGCAAUAUUACGGGUG | -2.96 ± 0.15 | -1.43 ± 0.12 |
| UCUCAGCAAUAUUACGCCUG |  | -2.27 ± 0.47 |
| AAACAGCAAUAUUACGAGCU | -1.25 ± 0.068 | -0.704 ± 0.086 |
| UCAAAGCAAUAUUACGCCGU | -2.43 ± 0.18 | -0.576 ± 0.12 |
| GACGAGCAAUAUUACGCAUC |  | -2.06 ± 0.36 |
| ACGAAGCAAUAUUACGGUGU | -2.71 ± 0.11 | -1.59 ± 0.095 |
| UAGGAGCAAUAUUACGAACG | -0.534 ± 0.12 | -0.578 ± 0.19 |
| UAAAAGCAAUAUUACGUUUG | -2.22 ± 0.1 | -0.909 ± 0.11 |
| CCCAAGCAAUAUUACGCAUA | -3.47 ± 0.19 | -2.49 ± 0.17 |

| Sequence | self-splicing fitness (ln) (30 °C) | self-splicing fitness (ln) (37 °C) |
| --- | --- | --- |
| UGAUAGCAAUAUUACGCGCC | -1.82 ± 0.36 | 0.00337 ± 0.21 |
| UGUUAGCAAUAUUACGACUC | -1.01 ± 0.19 | -0.182 ± 0.28 |
| CUGUAGCAAUAUUACGUGGU | -3.42 ± 0.24 | -2.75 ± 0.28 |
| UAUGAGCAAUAUUACGGUGG | -1.85 ± 0.22 | -2.72 ± 0.37 |
| GGGUAGCAAUAUUACGGUAA | -1.28 ± 0.12 | -0.587 ± 0.1 |
| AUCUAGCAAUAUUACGACAC | -1.02 ± 0.11 | 0.13 ± 0.13 |
| GUCCAGCAAUAUUACGUAAA | -0.484 ± 0.081 | 0.338 ± 0.12 |
| GAGAAGCAAUAUUACGAGGG | -3.49 ± 0.17 | -2.99 ± 0.19 |
| UUUUAGCAAUAUUACGGCCG | -0.37 ± 0.24 |  |
| CCUGAGCAAUAUUACGUCCA | -1.86 ± 0.28 |  |
| CACCAGCAAUAUUACGCGGA | -2.85 ± 0.15 | -0.595 ± 0.088 |
| CUGGAGCAAUAUUACGUAAA | -3.78 ± 0.36 | -2.22 ± 0.3 |
| AUAUAGCAAUAUUACGCUGU | -2.9 ± 0.22 | -2.32 ± 0.21 |
| ACCUAGCAAUAUUACGAAUG | -3.04 ± 0.15 | -2.3 ± 0.13 |
| GACUAGCAAUAUUACGCUGA | -1.16 ± 0.14 | -0.638 ± 0.14 |
| GCGAAGCAAUAUUACGGGUC |  | -0.782 ± 0.19 |
| AAUCAGCAAUAUUACGAACG | -0.399 ± 0.088 | -0.368 ± 0.1 |
| CAGAAGCAAUAUUACGUCAG | -1.15 ± 0.056 | -0.204 ± 0.078 |
| AACGAGCAAUAUUACGGUGU | -3.36 ± 0.17 | -1.81 ± 0.18 |
| AUAAAGCAAUAUUACGUUCC | -0.979 ± 0.13 | -0.885 ± 0.18 |
| ACUAAGCAAUAUUACGGGUU | -3.17 ± 0.16 | -2.34 ± 0.23 |
| GGGCAGCAAUAUUACGUGGA | -2.81 ± 0.11 | -1.62 ± 0.099 |
| GAUAAGCAAUAUUACGGACC | -1.24 ± 0.25 | -1.4 ± 0.28 |
| CUCUAGCAAUAUUACGUUUC | -5.02 ± 0.45 | -2.62 ± 0.19 |
| AAUUAGCAAUAUUACGAUGG | -3.31 ± 0.24 | -0.247 ± 0.17 |
| AUUGAGCAAUAUUACGCCUU | -2.26 ± 0.39 | -1.89 ± 0.3 |
